Source: the Human Domainome abundance scans (Beltran et al. 2025)
± gives the uncertainty stated by the source.

B1: Tudor domain-containing protein 3, residues 554 to 611; numbered along this chain, Q9H7E2 (parent)
chain: KMWKPGDECFALYWEDNKFYRAEVEALHSSGMTAVVKFIDYGNYEEVLLSNIKPIQTE

Variants of: B1
Assay: abundance fitness (aPCA) (normalised: wild type 0, dead -1); higher = more abundant; growth selection in yeast, the domain comes from the species named
Details: Homo sapiens
In the case of N17M, the abundance fitness is reported as -0.191 ± 0.098. Variant N17E has an abundance fitness of -0.021 ± 0.08. N17W gave an abundance fitness of -0.716 ± 0.13. With N17V the abundance fitness was -0.55 ± 0.074. N17Y showed an abundance fitness of -0.604 ± 0.2. For N17I, the abundance fitness was -0.742 ± 0.16. N17D gave an abundance fitness of 0.034 ± 0.1. With N17S the abundance fitness was -0.117 ± 0.072. With N17R the abundance fitness was -0.084 ± 0.068. Variant N17G has an abundance fitness of -0.105 ± 0.059. In the case of N17H, the abundance fitness is reported as -0.29 ± 0.15. Work on N17C yielded an abundance fitness of -0.349 ± 0.16. N17T showed an abundance fitness of -0.366 ± 0.084. N17Q gave an abundance fitness of -0.1 ± 0.092. In the case of N17F, the abundance fitness is reported as -0.65 ± 0.23. With F19I the abundance fitness was -0.649 ± 0.27. With F19P the abundance fitness was -0.81 ± 0.13. F19K gave an abundance fitness of -0.85 ± 0.16. Work on F19C yielded an abundance fitness of -1.02 ± 0.14. F19S gave an abundance fitness of -0.703 ± 0.086. Variant F19M has an abundance fitness of -0.386 ± 0.13. Variant F19T has an abundance fitness of -0.747 ± 0.12. For F19H, the abundance fitness was -0.457 ± 0.17. For F19Q, the abundance fitness was -0.599 ± 0.12. In the case of F19D, the abundance fitness is reported as -0.881 ± 0.15. In the case of F19V, the abundance fitness is reported as -0.756 ± 0.082. F19A showed an abundance fitness of -0.831 ± 0.087. F19G showed an abundance fitness of -0.925 ± 0.077. F19E showed an abundance fitness of -0.706 ± 0.099. In the case of F19W, the abundance fitness is reported as -0.008 ± 0.081. In the case of F19L, the abundance fitness is reported as -0.472 ± 0.08. F19Y gave an abundance fitness of -0.123 ± 0.14. For R21G, the abundance fitness was -0.978 ± 0.098. With R21P the abundance fitness was -0.206 ± 0.077. With R21A the abundance fitness was -0.289 ± 0.067. R21Q gave an abundance fitness of -0.13 ± 0.1. Work on R21D yielded an abundance fitness of -0.582 ± 0.14. Work on R21W yielded an abundance fitness of -0.766 ± 0.093. With R21I the abundance fitness was -0.434 ± 0.13. For R21Y, the abundance fitness was -0.662 ± 0.11. With R21N the abundance fitness was -0.678 ± 0.15. Variant R21C has an abundance fitness of -0.826 ± 0.11. In the case of R21H, the abundance fitness is reported as -0.143 ± 0.089. For R21L, the abundance fitness was -0.177 ± 0.058. For R21S, the abundance fitness was -0.622 ± 0.069. R21E gave an abundance fitness of -0.301 ± 0.099. R21V gave an abundance fitness of -0.508 ± 0.078. With R21M the abundance fitness was -0.506 ± 0.096. Work on R21T yielded an abundance fitness of -0.542 ± 0.094. For D7F, the abundance fitness was -0.677 ± 0.15. For D7N, the abundance fitness was -0.631 ± 0.093. Variant D7P has an abundance fitness of -0.706 ± 0.1. For D7H, the abundance fitness was -0.764 ± 0.15. D7T gave an abundance fitness of -0.502 ± 0.09. With D7A the abundance fitness was -0.396 ± 0.068. Work on D7Y yielded an abundance fitness of -0.712 ± 0.12. D7R gave an abundance fitness of -0.762 ± 0.07. D7G showed an abundance fitness of -0.899 ± 0.093. With D7Q the abundance fitness was -0.321 ± 0.094. D7V showed an abundance fitness of -0.789 ± 0.079. For D7L, the abundance fitness was -0.731 ± 0.077. For D7W, the abundance fitness was -0.882 ± 0.093. Variant D7C has an abundance fitness of -0.573 ± 0.14. For D7K, the abundance fitness was -0.887 ± 0.12. With D7I the abundance fitness was -0.826 ± 0.17. D7S showed an abundance fitness of -0.608 ± 0.078. For E8Q, the abundance fitness was -0.055 ± 0.088. Work on E8F yielded an abundance fitness of -0.118 ± 0.12. For E8P, the abundance fitness was -0.032 ± 0.088. Variant E8G has an abundance fitness of -0.264 ± 0.054. With E8K the abundance fitness was 0.017 ± 0.095. With E8T the abundance fitness was -0.083 ± 0.093. E8N gave an abundance fitness of -0.077 ± 0.11. Variant E8W has an abundance fitness of -0.178 ± 0.077. For E8C, the abundance fitness was -0.066 ± 0.086. E8L showed an abundance fitness of -0.016 ± 0.075. E8M gave an abundance fitness of -0.046 ± 0.12. With E8H the abundance fitness was 0.007 ± 0.089. E8I showed an abundance fitness of 0.056 ± 0.1. In the case of E8Y, the abundance fitness is reported as -0.079 ± 0.15. Work on E8V yielded an abundance fitness of -0.122 ± 0.066. Variant D16A has an abundance fitness of -0.529 ± 0.08. In the case of D16N, the abundance fitness is reported as -0.417 ± 0.15. In the case of D16Y, the abundance fitness is reported as -0.691 ± 0.17. For D16T, the abundance fitness was -0.377 ± 0.1. In the case of D16F, the abundance fitness is reported as -0.76 ± 0.25. Work on D16P yielded an abundance fitness of -0.602 ± 0.12. For D16R, the abundance fitness was -0.308 ± 0.057. For D16L, the abundance fitness was -0.588 ± 0.085. Work on D16I yielded an abundance fitness of -1.04 ± 0.26. With D16K the abundance fitness was -0.366 ± 0.11. In the case of D16V, the abundance fitness is reported as -0.722 ± 0.099. With D16H the abundance fitness was -0.116 ± 0.14. D16C showed an abundance fitness of -0.961 ± 0.14. D16M showed an abundance fitness of -0.754 ± 0.11. Variant D16G has an abundance fitness of -0.89 ± 0.077. For D16Q, the abundance fitness was -0.498 ± 0.12. For W14R, the abundance fitness was 0.071 ± 0.056. Variant W14F has an abundance fitness of -0.136 ± 0.084. W14Y gave an abundance fitness of -0.006 ± 0.12. Work on W14C yielded an abundance fitness of 0.046 ± 0.078. W14E showed an abundance fitness of 0.011 ± 0.077. Work on W14T yielded an abundance fitness of 0.016 ± 0.075. W14A gave an abundance fitness of 0.173 ± 0.065. For W14K, the abundance fitness was 0.166 ± 0.1. Work on W14L yielded an abundance fitness of -0.034 ± 0.062. W14M showed an abundance fitness of 0.066 ± 0.1. W14P showed an abundance fitness of 0.041 ± 0.11. Work on W14S yielded an abundance fitness of 0.134 ± 0.075. W14V showed an abundance fitness of -0.012 ± 0.057. With W14G the abundance fitness was 0.073 ± 0.054. W14H gave an abundance fitness of 0.043 ± 0.15. W14D gave an abundance fitness of 0.129 ± 0.1. In the case of W14Q, the abundance fitness is reported as 0.169 ± 0.099. For W14I, the abundance fitness was -0.131 ± 0.11. For W14N, the abundance fitness was 0.139 ± 0.1. Variant L12D has an abundance fitness of -0.891 ± 0.19. Work on L12H yielded an abundance fitness of -0.552 ± 0.13. Work on L12C yielded an abundance fitness of -0.236 ± 0.13. Variant L12G has an abundance fitness of -0.782 ± 0.086. For L12N, the abundance fitness was -0.486 ± 0.17. Variant L12W has an abundance fitness of -0.384 ± 0.083. L12I gave an abundance fitness of -0.272 ± 0.14. With L12S the abundance fitness was -0.725 ± 0.088. L12P gave an abundance fitness of -0.394 ± 0.075. L12F gave an abundance fitness of -0.493 ± 0.15. Work on L12V yielded an abundance fitness of -0.368 ± 0.071. L12T gave an abundance fitness of -0.861 ± 0.12. Work on L12A yielded an abundance fitness of -0.525 ± 0.083. In the case of L12R, the abundance fitness is reported as -0.124 ± 0.059. Variant L12Y has an abundance fitness of -0.754 ± 0.2. For L12Q, the abundance fitness was -0.252 ± 0.09. L12K gave an abundance fitness of 0.01 ± 0.12. Variant K4G has an abundance fitness of -0.486 ± 0.064. In the case of K4F, the abundance fitness is reported as -0.221 ± 0.078. Work on K4D yielded an abundance fitness of -0.678 ± 0.13. K4H gave an abundance fitness of -0.335 ± 0.099. Variant K4I has an abundance fitness of -0.415 ± 0.11. With K4W the abundance fitness was -0.543 ± 0.083. Variant K4R has an abundance fitness of -0.232 ± 0.061. K4S gave an abundance fitness of -0.149 ± 0.065. In the case of K4V, the abundance fitness is reported as -0.244 ± 0.065. For K4N, the abundance fitness was -0.233 ± 0.13. In the case of K4L, the abundance fitness is reported as -0.287 ± 0.065. In the case of K4M, the abundance fitness is reported as -0.169 ± 0.095. In the case of K4A, the abundance fitness is reported as -0.092 ± 0.082. Work on K4Q yielded an abundance fitness of -0.158 ± 0.089. K4P gave an abundance fitness of -0.912 ± 0.16. K4C showed an abundance fitness of -0.169 ± 0.084. K4E gave an abundance fitness of -0.2 ± 0.093. Work on K4Y yielded an abundance fitness of -0.17 ± 0.12. K4T showed an abundance fitness of -0.059 ± 0.077. For C9R, the abundance fitness was -0.819 ± 0.083. Variant C9G has an abundance fitness of -0.869 ± 0.076. C9L gave an abundance fitness of -0.913 ± 0.086. With C9N the abundance fitness was -0.82 ± 0.27. C9P gave an abundance fitness of -0.905 ± 0.12. C9Y gave an abundance fitness of -0.802 ± 0.099. Work on C9K yielded an abundance fitness of -0.915 ± 0.17. C9A showed an abundance fitness of -0.765 ± 0.1. Variant C9W has an abundance fitness of -0.773 ± 0.095. C9F gave an abundance fitness of -0.915 ± 0.16. With C9Q the abundance fitness was -0.93 ± 0.12. C9D gave an abundance fitness of -1.03 ± 0.23. Variant C9H has an abundance fitness of -0.817 ± 0.26. For C9E, the abundance fitness was -0.887 ± 0.14. Variant C9S has an abundance fitness of -0.942 ± 0.1.
